Assay results taken from the supplement of paper PMC12338614.

B1: library; numbered along this chain (parent)
chain: MEVVDPQQLGMFTEGELMSVGMDTFIHRIDSTEVIYQPRRKRAKLIGKYLMGDLLGEGSYGKVKEVLDSETLCRRAVKILKKKKLRRIPNGEANVKKEIQLLRRLRHKNVIQLVDVLYNEEKQKMYMVMEYCVCGMQEMLDSVPEKRFPVCQAHGYFCQLIDGLEYLHSQGIVHKDIKPGNLLLTTGGTLKISDLGVAEALHPFAADDTCRTSQGSPAFQPPEIANGLDTFSGFKVDIWSAGVTLYNITTGLYPFEGDNIYKLFENIGKGSYAIPGDCGPPLSDLLKGMLEYEPAKRFSIRQIRQHSWFRKKHPPAEAPVPIPPSPDTKDRWRSMTVVPYLEDLHGADEDEDLFDIEDDIIYTQDFTVPGQVPEEEASHNGQRRGLPKAVCMNGTEAAQLSTKSRAEGRAPNPARKACSASSKIRRLSACKQQ

Variants of: B1
Assay: STK11 functional score (HeLa growth suppression), rescaled enrichment; synonymous median = 1, nonsense median = 0 (normalised score)
Conditions: with HeLa; variant type: missense
Outline: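 In HeLa, Bxb1 integrated POPCode codon-randomised libraries of codon-optimised STK11 at an AAVS1 landing pad; three regions were each transfected three times. Integrants, marked as BFP-negative and mCherry-positive, were FACS-sorted 4–5 days after electroporation and expanded for about two weeks before tiled gDNA amplicons were sequenced on NextSeq (~2 million reads per tile). Each functional score is a post/pre-selection log ratio corrected to wild type, rescaled to the synonymous and nonsense medians, and merged across codons and replicate transfections, with error estimated by bootstrapping.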

STK11 functional score of substitutions, site by site:
M289: Q 0.0869 | Y -0.218 | G -0.0773 | A 0.107 | S -0.188 | E -0.103 | P -0.379 | V 0.966 | R -0.101 | F -0.0683 | W -0.296 | L 0.831 | D 0.312 | C 0.75
S299: F 0.544 | L 0.649 | N 1.59 | R 1.53 | I 1.25 | V 0.978 | D 1.18 | E 1.56 | T 1.55 | W 1.24 | A 1.42 | G 1.18 | C 1.3
W308: V -0.266 | R -0.166 | Y -0.119 | G 0.086 | L -0.172 | F 1.02 | S -0.303 | A 0.0826 | C -0.11
H306: S 1.53 | W -0.368 | C 0.975 | I 0.83 | T 1.54 | Q 0.514 | P 0.114 | L 0.85 | G 0.475 | R 0.628 | A 1.38 | Y 0.195 | V 0.418 | E 1.19
R310: I 1.59 | S 1.54 | T 0.923 | C 1.06 | G 0.764 | L 1.37 | H 1.5 | F 1.35 | V 1.43 | P 0.954 | Y 1.53 | D 1.6
A295: F 1.08 | I 1.35 | N 1.24 | G 1.37 | C 1.31 | L 0.756 | V 1.17 | W 1.36 | H 1.4 | S 1.44 | D 1.21
L290: W 0.691 | I 1.06 | F 0.664 | Q -0.237 | N -0.076 | E -0.387 | H -0.09 | P 0.264 | Y -0.205 | V 0.625 | R -0.22 | S 0.0143 | M 0.891 | G 0.0144 | T 1.07 | D -0.275 | C 1.06 | A 0.0427
Y292: S 1.28 | M 1.64 | I 1.09 | A 1.15 | R 1.22 | W 0.686 | C 0.438 | E 1.52 | V 0.931 | L 0.546 | T 1.68 | D 1.09 | F 0.991 | G 1.45 | P 1.38
K312: E 0.874 | D 1.49 | M 1.45 | F 0.982 | A 1.25 | N 1.58 | C 1.17 | G 1.62 | L 1.3
R304: I 0.364 | V 1.51 | Y -0.17 | S 0.843 | F 0.0963 | G 1.24 | K 1.31 | L 1.06 | A 1.49
I300: G 0.368 | M 0.944 | L 1.25 | S 0.391 | V 1.13 | R -0.144 | W 1.27 | C 0.803 | F 1.21 | A 1.51 | P 1.42
E291: C 1.24 | Q 1.36 | T 1.15 | H 1.17 | A 1.47 | D 1.03 | F 0.825 | R 1.53 | P 0.178 | M 1.66 | L 0.796 | V 1.28 | W 1.35 | K 1.28 | N 0.978 | S 1.38 | I 1.22 | G 0.922
K311: D 1.32 | Y 1.06 | S 0.915 | I 1.26 | P 1.07 | N 0.848 | A 1.61 | L 1.04 | W 0.995 | V 0.835 | G 1.35 | R 1.43 | H 0.501 | T 1.3
Q302: F 1.14 | H 1.12 | R 1.53 | G 1.14 | W 0.804 | E 0.957 | V 1.21 | C 1 | L 1.45 | A 1.45 | P -0.0839 | K 0.605 | S 1.47
R301: L 1.6 | C 1.17 | F 1.55 | S 1.49 | A 1.56 | Y 1.6 | V 1.62 | P 1.07 | G 1.48 | I 1.65
R297: L -0.121 | W -0.193 | T -0.0209 | V -0.053 | D 0.0713 | C -0.195 | F -0.355 | K -0.29 | S -0.196 | P -0.429 | A 0.147 | I 0.0965 | G -0.132
L286: S 0.0276 | P -0.27 | W 1.16 | V 1.14 | Q 0.0782 | I 1.36 | Y 1.36 | T 1.12 | N 0.195 | R -0.117
E293: I 1.16 | T 1.3 | S 1.08 | N 1.55 | Q 1.23 | W 1.07 | R 0.395 | G 0.451 | F 1.07 | D 1.43 | V 1.02 | P 0.842 | M 0.995 | H 1 | L 0.882 | A 1.03
K287: A 0.932 | S 0.94 | V 1.2 | R 0.533 | F 1.25 | E 1.62 | T 1.25 | W 0.0714 | H 1.3 | L 0.865 | Q 1.19 | G 1.28 | N 1.49 | Y 0.843 | I 1.27 | D 1.27 | P 0.105
S307: D 1.49 | G 0.664 | L 1.47 | R 0.948 | A 1.49 | F 1.38 | T 1.22 | I 1.02 | V 1.34 | W 1.47 | P 1.57
I303: Y -0.337 | V 1.43 | D -0.579 | C 0.545 | Q 1.56 | M 0.518 | F 0.372 | N 1.54 | S -0.209
P294: S 0.67 | Q 1.39 | D 0.708 | A 1.39 | W 1.36 | G 0.877 | T 1.09 | M 1.13 | V 1.36 | E 1.3 | R 0.705 | L 0.297 | I 0.351 | H 0.973 | N 0.433
F298: R 0.428 | A 1.55 | V 0.839 | D 1.48 | G -0.228 | E -0.101 | L 0.608 | I 1.35 | P 1.16 | W 0.876 | Y 0.754 | S 0.975
K296: M 1.32 | N 1.12
Q305: M 1.51 | T 1.5 | K 0.543 | V 1.59 | L 1.6 | G 1.52 | F 1.51 | I 1.53 | A 1.33 | W 0.981 | D 1.36 | R 1.14 | C 1.27 | Y 1.53 | S 0.954 | H 0.99 | E 1.02
G288: E 1.5 | A 0.95 | D -0.347 | P 0.0262 | F 0.357 | C 0.989 | R 0.927 | Y 0.713 | I -0.0856 | H 1.61 | V 0.518 | L 0.221 | M 1.23 | S 0.938
F309: V 0.0641 | G -0.12 | N -0.159 | S 0.538 | R 0.0957 | D -0.479 | L 0.874 | I 1.38
